According to article PMC1260013 (BMC Biochemistry, 2005):
Where “and” joins values, the source holds several entries; their conditions need not be identical. Equal entries are not always repeated.

Experiments:
SEC = target: the molecule itself; test: SEC
[1] = target: the molecule itself; test: SEC; Superose 6 10/300 GL, room temperature, concentrated ICD-2 (~400 ug; 1.06 mg/ml), low salt (100 mM NaCl)
[2] = target: the molecule itself; test: SEC; Superose 6 10/300 GL, room temperature, concentrated ICD-2 (~400 ug; 1.06 mg/ml), high salt (1 M NaCl)
[3] = target: the molecule itself; test: SEC; Superdex-200 HR 10/30, room temperature, 2.4 mg/ml recombinant ICD-1, calibrated with molecular-mass standards

Protein | stoichiometry N (SEC) | stoichiometry N [1] | stoichiometry N [2] | stoichiometry N [3]
Mycobacterium tuberculosis isocitrate dehydrogenase ICD-2 (Rv0066c) (enzyme, also called M.tb ICD-2; M. tb ICD-2) MSAEQPTIIYTLTDEAPLLATYAFLPIVRAFAEPAGIKIEASDISVAARILAEFPDYLTEEQRVPDNLAELGRLTQLPDTNIIKLPNISASVPQLVAAIKELQDKGYAVPDYPADPKTDQEKAIKERYARCLGSAVNPVLRQGNSDRRAPKAVKEYARKHPHSMGEWSMASRTHVAHMRHGDFYAGEKSMTLDRARNVRMELLAKSGKTIVLKPEVPLDDGDVIDSMFMSKKALCDFYEEQMQDAFETGVMFSLHVKATMMKVSHPIVFGHAVRIFYKDAFAKHQELFDDLGVNVNNGLSDLYSKIESLPASQRDEIIEDLHRCHEHRPELAMVDSARGISNFHSPSDVIVDASMPAMIRAGGKMYGADGKLKDTKAVNPESTFSRIYQEIINFCKTNGQFDPTTMGTVPNVGLMAQQAEEYGSHDKTFEIPEDGVANIVDVATGEVLLTENVEAGDIWRMCIVKDAPIRDWVKLAVTRARISGMPVLFWLDPYRPHENELIKKVKTYLKDHDTEGLDIQIMSQVRSMRYTCERLVRGLDTIAATGNILRDYLTDLFPILELGTSAKMLSVVPLMAGGGMYETGAGGSAPKHVKQLVEENHLRWDSLGEFLALGAGFEDIGIKTGNERAKLLGKTLDAAIGKLLDNDKSPSRKTGELDNRGSQFYLAMYWAQELAAQTDDQQLAEHFASLADVLTKNEDVIVRELTEVQGEPVDIGGYYAPDSDMTTAVMRPSKTFNAALEAVQG | 3 | 4 | 2 | 
Mycobacterium tuberculosis isocitrate dehydrogenase ICD-1 (Rv3339c) (enzyme, also called M.tb ICD-1; M. tb ICD-1) MSNAPKIKVSGPVVELDGDEMTRVIWKLIKDMLILPYLDIRLDYYDLGIEHRDATDDQVTIDAAYAIKKHGVGVKCATITPDEARVEEFNLKKMWLSPNGTIRNILGGTIFREPIVISNVPRLVPGWTKPIVIGRHAFGDQYRATNFKVDQPGTVTLTFTPADGSAPIVHEMVSIPEDGGVVLGMYNFKESIRDFARASFSYGLNAKWPVYLSTKNTILKAYDGMFKDEFERVYEEEFKAQFEAAGLTYEHRLIDDMVAACLKWEGGYVWACKNYDGDVQSDTVAQGYGSLGLMTSVLMTADGKTVEAEAAHGTVTRHYRQYQAGKPTSTNPIASIFAWTRGLQHRGKLDGTPEVIDFAHKLESVVIATVESGKMTKDLAILIGPEQDWLNSEEFLDAIADNLEKELAN |  |  |  | 4 and 2
